From paper PMC12219679, “High yield purification of an isoleucine zipper-modified CD95 ligand for efficient cell apoptosis initiation and with biotin or DNA-oligomer binding domain to probe ligand functionalization effects” (BMC Biotechnology, 2025)
“And” between values parts separate entries of the source, which are not always exact repeats. Equal entries are not always repeated.

T1: FLAG-CD95L (Enzo) (UniProt P48023 130-281)
T1 construct: CD95 ligand (CD95L, Fas ligand), soluble commercial protein with a FLAG tag; No catalogue number is printed; source: bought: Enzo Life Sciences
T1 sequence (looked up): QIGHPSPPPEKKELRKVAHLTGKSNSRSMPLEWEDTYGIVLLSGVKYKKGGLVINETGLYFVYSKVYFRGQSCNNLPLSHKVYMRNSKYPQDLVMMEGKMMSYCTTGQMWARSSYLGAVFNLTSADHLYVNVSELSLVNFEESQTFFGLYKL


Experiments:
[1] = target: T1, FLAG-CD95L (Enzo); test: ELISA; CD95-His coated at 2 µg/ml in PBS overnight at 4 °C; biotin-IZ-CD95L or FLAG-CD95L 0.1 nM to 100 nM in 0.5% BSA/PBST, 2 h at r.t.; detected with anti-CD95L antibody and HRP secondary; 4-parameter logistic fit; conditions: both partners purified
[2] = target: the molecule itself; test: SEC; Superdex 75 10/300 GL (Fig. 3A) or ENrich SEC 70 10 x 300 (Fig. 3B, C); PBS pH 7.4, 0.3 ml/min; sizes from a standard curve of protein standards; peak shares from Gaussian fits

Kd [1]	Binder	stoichiometry N [2]
11.3 nM	CD95-His (Sino Biological) (receptor, UniProt P25445 26-173, looked up, CD95 (Fas, Apo-1), soluble commercial protein with a His tag; No catalogue number is printed; In the functional rows on Hela WT cells the CD95 is the endogenous receptor of the cells; this molecule stands for it; also called Fas; Apo-1; source: bought: Sino Biological) QVTDINSKGLELRKTVTTVETQNLEGLHHDGQFCHKPCPPGERKARDCTVNGDEPDCVPCQEGKEYTDKAHFSSKCRRCRLCDEGHGLEVEINCTRTQNTKCRCKPNFFCNSTVCEHCDPCTKCEHGIIKECTLTSNTKCKEEGSRSN	
	His-IZ-CD95L (His8-TEV-Cys-IZ-CD95L, secreted form without the IL2 signal peptide) (ligand, TEV protease cleavage site ENLYFQ, extra cysteine, isoleucine zipper (IZ, variant of the GCN4 leucine zipper) and linker; stands after the His8 tag in the printed insert; CD95 ligand (CD95L, Fas ligand, CD178, TNFSF6), human, extracellular domain, amino acids 137-281, without the stalk region; Origin: a designed isoleucine zipper joined to a natural stretch of CD95L; also called X-IZ-CD95L; …) not shown	3 and 2
